Measurements reported in patent US20190336574A1 (TRUSTEES OF PRINCETON UNIVERSITY, published 2019).

T1: murine SND1, wild type (mouse, UniProt Q78PY7 1-910)
T1 construct: Endogenous protein of murine PyMT mammary tumor cells; also called SND1 (in PyMT tumor cells); WT shRNA-resistant murine SND1
T1 sequence (looked up): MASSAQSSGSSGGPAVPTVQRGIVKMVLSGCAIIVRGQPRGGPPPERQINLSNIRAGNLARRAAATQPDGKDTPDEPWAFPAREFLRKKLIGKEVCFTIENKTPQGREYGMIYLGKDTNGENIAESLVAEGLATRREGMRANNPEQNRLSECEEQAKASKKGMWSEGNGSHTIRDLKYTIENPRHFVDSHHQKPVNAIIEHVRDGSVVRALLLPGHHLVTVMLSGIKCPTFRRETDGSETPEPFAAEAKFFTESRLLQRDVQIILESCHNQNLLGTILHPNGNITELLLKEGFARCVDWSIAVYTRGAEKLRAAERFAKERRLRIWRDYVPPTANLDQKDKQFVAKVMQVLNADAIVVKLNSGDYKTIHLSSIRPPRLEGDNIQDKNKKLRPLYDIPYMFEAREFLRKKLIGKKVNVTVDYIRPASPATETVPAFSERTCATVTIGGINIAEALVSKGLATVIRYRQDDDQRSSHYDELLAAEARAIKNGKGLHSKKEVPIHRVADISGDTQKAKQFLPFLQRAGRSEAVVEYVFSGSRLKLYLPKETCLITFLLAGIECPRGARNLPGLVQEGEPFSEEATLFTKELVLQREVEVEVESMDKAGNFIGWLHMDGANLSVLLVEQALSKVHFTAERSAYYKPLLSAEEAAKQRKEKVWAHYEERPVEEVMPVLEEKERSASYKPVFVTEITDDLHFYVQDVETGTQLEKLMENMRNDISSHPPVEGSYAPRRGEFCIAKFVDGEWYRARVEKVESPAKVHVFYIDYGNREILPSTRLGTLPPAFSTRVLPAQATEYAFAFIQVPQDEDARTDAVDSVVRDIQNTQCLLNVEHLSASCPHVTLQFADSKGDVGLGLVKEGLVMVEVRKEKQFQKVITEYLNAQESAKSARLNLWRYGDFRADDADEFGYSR

T2: HA-SND1, full-length human, wild type (human, UniProt Q7KZF4 1-910)
T2 construct: Full-length, HA-tagged; Expressed in HEK293T cells, tested in lysate; also called HA-tagged SND1; WT HA-SND1
T2 sequence: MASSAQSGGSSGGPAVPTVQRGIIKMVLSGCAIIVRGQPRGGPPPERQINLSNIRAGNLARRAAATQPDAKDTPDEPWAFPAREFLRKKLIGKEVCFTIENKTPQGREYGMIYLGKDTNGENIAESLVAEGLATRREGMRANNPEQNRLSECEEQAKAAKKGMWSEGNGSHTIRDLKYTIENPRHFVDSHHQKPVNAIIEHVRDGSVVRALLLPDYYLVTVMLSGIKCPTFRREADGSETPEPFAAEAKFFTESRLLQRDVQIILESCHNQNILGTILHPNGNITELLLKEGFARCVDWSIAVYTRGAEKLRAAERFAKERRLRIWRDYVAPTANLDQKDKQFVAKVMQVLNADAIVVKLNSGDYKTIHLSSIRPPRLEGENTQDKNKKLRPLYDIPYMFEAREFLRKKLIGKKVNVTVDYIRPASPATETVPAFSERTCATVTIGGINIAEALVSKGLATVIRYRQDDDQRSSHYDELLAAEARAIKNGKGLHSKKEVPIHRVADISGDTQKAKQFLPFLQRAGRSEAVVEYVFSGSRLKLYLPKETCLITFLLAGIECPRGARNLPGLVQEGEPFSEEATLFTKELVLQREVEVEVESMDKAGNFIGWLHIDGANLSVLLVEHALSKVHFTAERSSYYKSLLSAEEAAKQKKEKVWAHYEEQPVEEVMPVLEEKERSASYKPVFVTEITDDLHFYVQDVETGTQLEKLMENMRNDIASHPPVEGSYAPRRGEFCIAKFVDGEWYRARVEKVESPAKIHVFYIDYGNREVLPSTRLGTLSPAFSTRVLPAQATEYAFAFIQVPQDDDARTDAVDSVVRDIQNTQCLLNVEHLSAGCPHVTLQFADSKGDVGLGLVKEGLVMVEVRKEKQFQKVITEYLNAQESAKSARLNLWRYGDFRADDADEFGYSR


Legend:
murine SND1, wild type = molecular target: T1, murine SND1, wild type; experiment: co-IP (anti-MTDH) from reconstituted PyMT;Mtdh-/- tumor cells, western blot
Excerpt: IP lysates were subjected to western blotting with indicated antibodies.
In particular, genetic deletion of Mtdh in mice impairs the tumor-initiating potential of mammary epithelial cells transformed by diverse oncogenes (PyMT, Wnt, ErbB2) or carcinogen stimuli, and this defect can be readily rescued by reintroducing MTDH into Mtdh-knockout (Mtdh−/−) tumor cells by lentiviral transduction. To test whether interacting with SND1 is important for the tumor-initiating effect of MTDH, the murine form of WT or mutant MTDH (W394A or W401A, corresponding mutations in mouse are W391A, W398A) was stably expressed in mammary tumor cells from PyMT;Mtdh−/− mice. […] To examine how MTDH mutations affect tumor formation in vivo, PyMT;Mtdh−/− tumor cells were orthotopically transplanted into the mammary fat pads of WT recipient mice. […] Furthermore, the size of tumors formed by PyMT;Mtdh−/− tumor cells reconstituted with mutant MTDH was much smaller than that with WT MTDH (FIG. 23D-E).

[1] = molecular target: T2, HA-SND1, full-length human, wild type; experiment: co-IP from HEK293T lysates (anti-HA per text, anti-Myc per legend), western blot
Procedure: Immunoprecipitation and western blot: For in vivo immunoprecipitation (IP) experiments, cultured cells were washed in cold PBS and lysed in lysis buffer (20 mM Tris pH 7.4, 0.15 M NaCl, 1 mM EDTA, 1 mM EGTA, 1% Tx-100, 0.0025 M Na2P2O7, 1 mM β-glycerolphosphate, 1 mM Na3VO4, and 1 mM NaF) with an EDTA-free protease inhibitor mixture (Roche Applied Science) and PMSF. Cell lysates were then incubated on ice for 10 min, centrifuged, and precleared by incubating with protein A/G beads (Santa Cruz Biotechnology) for 1 h at 4° C. For IP bead preparation, 30 μl of protein A/G beads were incubated with 5 μg of antibodies for 2 h at 4° C. IPs were carried out for overnight at 4° C., and beads were centrifuged, washed and subsequently boiled for 5 min in SDS protein loading buffer to elute bound protein. IP lysates were subjected to western blotting with indicated antibodies.
It was further examined how the MTDH and SND1 mutations identified at this interface affected the interaction of full-length proteins in mammalian cells. Full-length HA-tagged SND1 was co-expressed with full-length Myc-tagged wild-type (WT) or mutant MTDH in HEK293T cells and cell lysates were subjected to anti-HA immunoprecipitation for SND1 pull down. Consistent with in vitro observations (FIG. 22A), WT MTDH, but not mutants W394A, W394D, or W401A, was pulled down along with HA-SND1 (FIG. 22C, in red). […] Likewise, the SND1 mutations that affected MTDH-binding in vitro also affected the binding of full-length proteins in vivo to similar levels.

Binder | binding result (murine SND1, wild type) | binding result [1]
murine MTDH TPM1 (D386R, D390R, W391D) (other, mouse, UniProt Q80WJ7 1-579, looked up, also called TPM1 (murine form)) MAARSWQDELAQQAEEGSARLRELLSVGLGFLRTELGLDLGLEPKRYPGWVILVGTGALGLLLLFLLGYGWAAACAGARKKRRSPPRKREEAAPPTPAPDDLAQLKNLRSEEQKKKNRKKLPEKPKPNGRTVEVPEDEVVRNPRSITAKQAPETDKKNEKSKKNKKKSKSDAKAVQNSSRHDGKEVDEGAWETKISHREKRQQRKRDKVLTDSGSLDSTIPGIENIITVTTEQLTTASFPVGSKKNKGDSHLNVQVSNFKSGKGDSTLQVSSRLNENLTVNGGGWSEKSVKLSSQLSEEKWNSVPPASAGKRKTEPSAWTQDTGDTNANGKDWGRNWSDRSIFSGIGSTAEPVSQSTTSDYQWDVSRNQPYIDDEWSGLNGLSSARPSSRDNAPAEEWGNWVDEDRASLLKSQEPISNDQKVSDDDKEKGEGALPTGKSKKKKKKKKKQGEDNSHTQDTEDLEKDTREELPVNTSKARPKQEKACSLKTMSTSDPAEVLIKNSQPVKTLPPAISAEPSITLSKGDSDNSSSQVPPMLQDTDKPKSNAKQNSVPPSQTKSETNWESPKQIKKKKKARRET | no binding | 
Myc-MTDH D389R, full-length human (other, Full-length, Myc-tagged; also called SPM11) MAARSWQDELAQQAEEGSARLREMLSVGLGFLRTELGLDLGLEPKRYPGWVILVGTGALGLLLLFLLGYGWAAACAGSRKKRRSPPRKREEAAAVPAAAPDDLALLKNLRSEEQKKKNRKKLSEKPKPNGRTVEVAEGEAVRTPQSVTAKQPPEIDKKNEKSKKNKKKSKSDAKAVQNSSRHDGKEVDEGAWETKISHREKRQQRKRDKVLTDSGSLDSTIPGIENTITVTTEQLTTASFPVGSKKNKGDSHLNVQVSNFKSGKGDSTLQVSSGLNENLTVNGGGWNEKSVKLSSQISAGEEKWNSVSPASAGKRKAEPSAWSQDTGDANTNGKDWGRSWSDRSIFSGIGSTAEPVSQSTTSDYQWDVSRNQPYIDDEWSGLNGLSSARPNSDWNAPAEEWGNWVDEERASLLKSQEPIPDDQKVSDDDKEKGEGALPTGKSKKKKKKKKKQGEDNSTAQDTEELEKEIREDLPVNTSKTRPKQEKAFSLKTISTSDPAEVLVKNSQPIKTLPPATSTEPSVILSKSDSDKSSSQVPPILQETDKSKSNTKQNSVPPSQTKSETSWESPKQIKKKKKARRET |  | binds
Myc-MTDH W394A, full-length human (other, Full-length, Myc-tagged) MAARSWQDELAQQAEEGSARLREMLSVGLGFLRTELGLDLGLEPKRYPGWVILVGTGALGLLLLFLLGYGWAAACAGSRKKRRSPPRKREEAAAVPAAAPDDLALLKNLRSEEQKKKNRKKLSEKPKPNGRTVEVAEGEAVRTPQSVTAKQPPEIDKKNEKSKKNKKKSKSDAKAVQNSSRHDGKEVDEGAWETKISHREKRQQRKRDKVLTDSGSLDSTIPGIENTITVTTEQLTTASFPVGSKKNKGDSHLNVQVSNFKSGKGDSTLQVSSGLNENLTVNGGGWNEKSVKLSSQISAGEEKWNSVSPASAGKRKAEPSAWSQDTGDANTNGKDWGRSWSDRSIFSGIGSTAEPVSQSTTSDYQWDVSRNQPYIDDEWSGLNGLSSADPNSDANAPAEEWGNWVDEERASLLKSQEPIPDDQKVSDDDKEKGEGALPTGKSKKKKKKKKKQGEDNSTAQDTEELEKEIREDLPVNTSKTRPKQEKAFSLKTISTSDPAEVLVKNSQPIKTLPPATSTEPSVILSKSDSDKSSSQVPPILQETDKSKSNTKQNSVPPSQTKSETSWESPKQIKKKKKARRET |  | no binding
Myc-MTDH W394D, full-length human (other, Full-length, Myc-tagged; also called SPM13) MAARSWQDELAQQAEEGSARLREMLSVGLGFLRTELGLDLGLEPKRYPGWVILVGTGALGLLLLFLLGYGWAAACAGSRKKRRSPPRKREEAAAVPAAAPDDLALLKNLRSEEQKKKNRKKLSEKPKPNGRTVEVAEGEAVRTPQSVTAKQPPEIDKKNEKSKKNKKKSKSDAKAVQNSSRHDGKEVDEGAWETKISHREKRQQRKRDKVLTDSGSLDSTIPGIENTITVTTEQLTTASFPVGSKKNKGDSHLNVQVSNFKSGKGDSTLQVSSGLNENLTVNGGGWNEKSVKLSSQISAGEEKWNSVSPASAGKRKAEPSAWSQDTGDANTNGKDWGRSWSDRSIFSGIGSTAEPVSQSTTSDYQWDVSRNQPYIDDEWSGLNGLSSADPNSDDNAPAEEWGNWVDEERASLLKSQEPIPDDQKVSDDDKEKGEGALPTGKSKKKKKKKKKQGEDNSTAQDTEELEKEIREDLPVNTSKTRPKQEKAFSLKTISTSDPAEVLVKNSQPIKTLPPATSTEPSVILSKSDSDKSSSQVPPILQETDKSKSNTKQNSVPPSQTKSETSWESPKQIKKKKKARRET |  | no binding
Myc-MTDH W401A, full-length human (other, Full-length, Myc-tagged) MAARSWQDELAQQAEEGSARLREMLSVGLGFLRTELGLDLGLEPKRYPGWVILVGTGALGLLLLFLLGYGWAAACAGSRKKRRSPPRKREEAAAVPAAAPDDLALLKNLRSEEQKKKNRKKLSEKPKPNGRTVEVAEGEAVRTPQSVTAKQPPEIDKKNEKSKKNKKKSKSDAKAVQNSSRHDGKEVDEGAWETKISHREKRQQRKRDKVLTDSGSLDSTIPGIENTITVTTEQLTTASFPVGSKKNKGDSHLNVQVSNFKSGKGDSTLQVSSGLNENLTVNGGGWNEKSVKLSSQISAGEEKWNSVSPASAGKRKAEPSAWSQDTGDANTNGKDWGRSWSDRSIFSGIGSTAEPVSQSTTSDYQWDVSRNQPYIDDEWSGLNGLSSADPNSDWNAPAEEAGNWVDEERASLLKSQEPIPDDQKVSDDDKEKGEGALPTGKSKKKKKKKKKQGEDNSTAQDTEELEKEIREDLPVNTSKTRPKQEKAFSLKTISTSDPAEVLVKNSQPIKTLPPATSTEPSVILSKSDSDKSSSQVPPILQETDKSKSNTKQNSVPPSQTKSETSWESPKQIKKKKKARRET |  | no binding
